Experimental findings from the supplement of paper PMC12042874 are described below.

The nature of the data set: amyloid nucleation score (Sup35N fusion, yeast selection) (log enrichment); library NNK2; higher = more nucleation; inactive = no reads after selection. The gist of the method: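 Psi-negative yeast expressed Sup35N fused to peptides of 20 random codons. They were induced 24 hours with 100 μM copper sulfate, grown 7 days at 30°C without adenine and uracil, and their plasmid inserts from input and output were Illumina-sequenced. The nucleation score is the DiMSum log enrichment of output over input reads, centred on the mode score of non-aggregating sequences. Sequences with under 100 input reads were excluded.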

± gives the uncertainty stated by the source.

YGQSRANDTDDPGWGTVMRL displayed an amyloid nucleation score of 0.3 ± 0.74. VSVIGKFSFHPKRMRG came in with an amyloid nucleation score of -0.481 ± 0.39. In turn, RNSIYMVTYIMVLDRIA returned an amyloid nucleation score of 6.127 ± 0.046. KWIMWLDRYPDTSPCILYAQ gave an amyloid nucleation score of 4.42 ± 0.055. With KAFFFPQFCCIYGLGM, the amyloid nucleation score turned out to be 8.903 ± 0.035. The result for IWSSHRVSHGVILESGEVWA reads -0.25 ± 0.42; that for SNSCHNAATRGYR, 0.315 ± 0.74.

As to WVSCVVCFWIDHESAALESV, the amyloid nucleation score was found to be 8.784 ± 0.036. DLLVCC had an amyloid nucleation score of 1.28 ± 0.26. Under SQFLEYTFEYFSGFPGRLVE stands -0.316 ± 0.42; under LLGAGLSITMWDGPQL, 0.654 ± 0.23.

Consider DMRFYMVLA, for which the amyloid nucleation score came out at 4.94 ± 0.051. TCSSPTMKSYMNHCLHVDSF showed an amyloid nucleation score of 0.516 ± 0.47. WYGFNNDTEWKNTKAFW had an amyloid nucleation score of 1.83 ± 0.084. On to NNSWTDLRCVIYMSITGEPH, for which the amyloid nucleation score is 8.633 ± 0.044. The result for SYRELIYRDWLYRHVTL reads 1.1 ± 0.11; that for PGYSSNSCERDLLGRASVWL, -0.593 ± 0.74.

Turning to YGSRVYLRVWKLGCFGQYGE, the amyloid nucleation score is 1.68 ± 0.27.

Take GHSSFDQTAFSDSAGSLRML: the amyloid nucleation score entry was “inactive”. YLGICTMFDTGIGEIFTCCT yielded an amyloid nucleation score of 5.78 ± 0.069.

Substance FLCVTISLDNSVACLPLRYS showed an amyloid nucleation score of 0.532 ± 0.66. Under YSTFSGH stands 0.806 ± 0.27. The result for MVPGDRCPIAKNHFFPKINL reads -0.335 ± 0.45. MCPNGPAVIGMLFRLHTLFK gave an amyloid nucleation score of 0.168 ± 0.35. Take ARFWWALGNLCERIAGNDWV: the amyloid nucleation score was determined as 0.216 ± 0.44. For the substance LYYTCDIHTGRWWVLLVHGV, the amyloid nucleation score amounted to 4.28 ± 0.11. Substance FDMVSVVVYMRAVTTKCGPS showed an amyloid nucleation score of 1.73 ± 0.24. For the substance YINSGV, the amyloid nucleation score entry is “inactive”. For the substance FIDLYLRFWVCTSFQCAHSI, the amyloid nucleation score entry is “inactive”. As for YICLAVGDVNGEMNYWVIRG, the amyloid nucleation score is 6.865 ± 0.043. Take GGYDP: the amyloid nucleation score result was “inactive”. For the substance SDMTNS, the amyloid nucleation score is -1.55 ± 0.64.

On to LMMTSVYLKLGWSFFIFRHR, for which the amyloid nucleation score is -0.238 ± 1.1. SFPMLVISVS: the amyloid nucleation score was determined as 4.7 ± 0.068.

With LYMAFREMQSWQHCW, the amyloid nucleation score is -0.227 ± 0.49.

In turn, QHAFRVHFTVRRVSSFFVR returned an amyloid nucleation score of 5.96 ± 0.086.

LSDGN yielded an amyloid nucleation score of -1.04 ± 0.76. For LFLQVGTAVGIRYINGAYLV, the amyloid nucleation score was -0.959 ± 0.38. For the substance KFYIPSDLVLVRCPST, the amyloid nucleation score was -0.883 ± 1.1. Under YFVRFEDIGWTVSVHTGDSG stands -0.063 ± 0.45; under STSICYFLYRLWSHISLNSL, “inactive”. Take PIWFQFGVANTSGLNGVLTS: the amyloid nucleation score was determined as 0.612 ± 0.34. In turn, LIFGAKLESGYASVEFSDSD yielded an amyloid nucleation score of -0.347 ± 1. LIGAATSKNVIRCNGWDGDQ: the amyloid nucleation score was 0.848 ± 0.57. In turn, CQCSVSVGNTDSHNLPKVYV yielded an amyloid nucleation score of -0.221 ± 1.1. The result for KTLTVFAISYC reads 0.482 ± 0.55; that for LKQTGQLRVMSN, 0.039 ± 0.79. The result for ISLSHWGQTIPLRSFLLNRL reads 0.432 ± 0.53; that for SAADQPKWRSTTSCVPSDVS, 3.74 ± 0.068; that for FFRNIIYRCMREIKFIEPSE, -0.046 ± 0.63. On to LGFFKSGVVH, for which the amyloid nucleation score entry was “inactive”. The result for VQSTRIISCVLCLGDWLEDY reads 10.19 ± 0.022; that for TTPGTDSLMAEII, 1.01 ± 0.49; that for NLQRFSQPKIHRPNTMPLNV, “inactive”. Under RWCSLDSQSDYSSM stands -0.681 ± 1; under SCLMIIPFVFMFEHYTFEEG, 7.71 ± 0.082; under AGEYDLIFYLDFYMGNEVIS, 2.29 ± 0.13.

In turn, SDNAEGVSANFFVRPILSVF gave an amyloid nucleation score of -1.47 ± 1.1. FLVLIQRKAQGITLQREGTW: the amyloid nucleation score turned out to be 5.84 ± 0.069.

The substance IDDCVKGKTPGNSGNMFCLP displayed an amyloid nucleation score of -1.06 ± 0.42. NPALNRLMDGVNRFPLKCYV: the amyloid nucleation score is -0.338 ± 0.23. The substance NSVCSTLKHLSNLGSIDIQH returned an amyloid nucleation score of -0.363 ± 1.1. Consider LDSSYY, for which the amyloid nucleation score entry is “inactive”. For the substance VLTSFGLW, the amyloid nucleation score amounted to 5.206 ± 0.037. With GHIQLRTVYGV, the amyloid nucleation score is 1.2 ± 0.68. As for YNCGSLILNRISSGL, the amyloid nucleation score was -2.21 ± 0.76. The substance TMGYNFRCYVPLMNMLVRGV came in with an amyloid nucleation score of -0.614 ± 0.54.

For KLAVCLCGSKHNDLGYRGDP, the amyloid nucleation score result was “inactive”.

RVMEYEILLIFCI: the amyloid nucleation score worked out at 0.135 ± 0.65. Substance DSGLMSFVCNVDPKCVCFVN registered an amyloid nucleation score of 7.968 ± 0.075. On to SEYVLLT, for which the amyloid nucleation score entry is “inactive”.

Take IVDHVYCIVILDLEHFFYNE: the amyloid nucleation score was 5.02 ± 0.083. As for RVNCSFTDFVDVVIWKGRGN, the amyloid nucleation score was 5.07 ± 0.089.

In the case of VTSLG, the amyloid nucleation score is -0.249 ± 0.25. In turn, EPKFCGMDNHEL gave an amyloid nucleation score of 3.78 ± 0.14. The substance VVIILNDTNFLMINMVQRVM displayed an amyloid nucleation score of 4.327 ± 0.039. Consider CALNFCAEVARFLRMLKSLL, for which the amyloid nucleation score is -0.042 ± 0.79. The result for KSMFRTNLYIIILQSSTRFQ reads -1.06 ± 0.76; that for RYLIGNSGNYVNGCVEQALR, -0.365 ± 0.76; that for HSRLLCWANVDLERFSEWSG, 1.46 ± 0.23. The result for LSLRDVGGLLSNLSIMCGKG reads 0.144 ± 0.25. As for AGFMHVCYGSGQHRSKVDGC, the amyloid nucleation score was 2.93 ± 0.082. ATPLSGMVFNWSFEWQGCLL had an amyloid nucleation score of 0.949 ± 0.18. Turning to LSMTKVLFCTFEITSLSLYQ, the amyloid nucleation score was -0.245 ± 0.62. Substance QLPAHFFGLFCLFP gave an amyloid nucleation score of -1.41 ± 0.73.

On to VFVERMPVGFHPFRIKIILT, for which the amyloid nucleation score worked out at 1.01 ± 0.59. The result for LFLTHPARWSSNLRRLL reads 0.069 ± 0.3; that for MHEEP, 1.29 ± 0.23. On to FIIRYLYYKS, for which the amyloid nucleation score result was “inactive”. In turn, LNKNLLEKCLYRDLLLSVFW registered an amyloid nucleation score of -2.32 ± 1.1.

Consider VLVMVRTFNGNILPFLAPDL, for which the amyloid nucleation score was 5.714 ± 0.024. Take VSRVEYCSGCMSANYLL: the amyloid nucleation score was 7.7 ± 0.08. Consider IHSSVGYMKTVPKLDDS, for which the amyloid nucleation score was determined as 0.207 ± 0.34. Regarding NQRHVIPNSIVLWWGELDLF, the amyloid nucleation score was 0.465 ± 0.8. Regarding SNITDWVTTKVRMEKRPVVQ, the amyloid nucleation score result is “inactive”. LKITRRSALV came in with an amyloid nucleation score of 0.186 ± 0.76. For the substance RVNNLLEKEGTSYGEFAYGL, the amyloid nucleation score came out at 0.182 ± 0.45. With YYNIQLSFVDMVLMYYDESM, the amyloid nucleation score stood at 4.443 ± 0.04.

As for GAGHNNLLEDAFTSRSVTAR, the amyloid nucleation score is 0.489 ± 0.28. The result for MYMARCKASTVSDYQNS reads -0.393 ± 0.55; that for SNFETDTL, 1.82 ± 0.14.

In turn, NGVRSWSQHLWKRGRWEG showed an amyloid nucleation score of 1.69 ± 0.3. PIVLAK showed an amyloid nucleation score of -0.672 ± 0.79. Take RSSRHLDAYIEAS: the amyloid nucleation score came out at 0.877 ± 0.28.

Consider GCVRIMPCVFGSVRWHWYVW, for which the amyloid nucleation score turned out to be 1.28 ± 0.25.

In the case of DAKRVQIYF, the amyloid nucleation score was found to be 1.02 ± 0.68.

As for RNESHVNLLGFMLDRRPDRG, the amyloid nucleation score worked out at 4.37 ± 0.071. Consider FGGIASMMFVEMRRGSINEM, for which the amyloid nucleation score was found to be 3.51 ± 0.045. With IKCKKKYRSYWNRG, the amyloid nucleation score was -0.27 ± 0.46.

The substance CFFTCC returned an amyloid nucleation score of 9.912 ± 0.045. MCSQGCTHFRVAWPLRACRW gave an amyloid nucleation score of 3.85 ± 0.072. Take ILVMKFNSWLADEDRVRSVI: the amyloid nucleation score came to 1.21 ± 0.27. The result for RVSDRHV reads 1.42 ± 0.099; that for CIELFPFAMVNRIFATYSYH, -0.352 ± 0.25; that for LSLLEGKVWLRWY, 1.2 ± 0.61. On to AIQQTQLLCIENMVGLFVVR, for which the amyloid nucleation score amounted to 0.58 ± 0.64. Turning to PFSNMLASAFNFILITCSDL, the amyloid nucleation score entry is “inactive”. The result for FICVCIVKNKGMGRPCN reads 2.72 ± 0.1; that for KYNLRDSNCSTCMFGSSRVS, 4.251 ± 0.04. The result for ISWTPSGAIVVS reads “inactive”; that for WRQLRSPVYRPYCL, -0.124 ± 0.32. MNWHTSYCLFDVRAKVAGNV: the amyloid nucleation score was -0.393 ± 1.1.

Turning to HFNSTNPTRLLVDEEFFYFE, the amyloid nucleation score is -0.317 ± 0.5. The substance SCALF came in with an amyloid nucleation score of -0.679 ± 1.1. Take KFKLLMTSRWDTFNVADTYD: the amyloid nucleation score was 5.04 ± 0.042. The substance RYKKAHSSALRCK yielded an amyloid nucleation score of 0.988 ± 0.74. The substance EMSFSLTYSRSRHFRSGGTA registered an amyloid nucleation score of 6.32 ± 0.064. The result for FYGSEVIMSTDVQGNGEYGA reads -0.791 ± 0.62. As to RDALCVHWVAYIGNKHGWVA, the amyloid nucleation score was 0.965 ± 0.17.

For the substance MSSPD, the amyloid nucleation score was determined as 6.596 ± 0.034. QSMTTQNLGVWEELCKAFLI: the amyloid nucleation score entry is “inactive”. With WSITGG, the amyloid nucleation score amounted to 0.477 ± 0.66.

On to MTQRHFLVDTGRKAR, for which the amyloid nucleation score came to 1.22 ± 0.48. For the substance TGDSVGLGLLGSWRNEKVCD, the amyloid nucleation score turned out to be 0.088 ± 0.3. As to PRAHTVNV, the amyloid nucleation score is -0.249 ± 1.1. As to LVQGNTFE, the amyloid nucleation score stood at 1.19 ± 0.44. The result for TMDNISSNSFDACSICSYWY reads 9.385 ± 0.081. For the substance NLCDLDRGNEYAWWRVFMRS, the amyloid nucleation score was determined as 4.38 ± 0.11.

Regarding QDRGHSVL, the amyloid nucleation score result was “inactive”. As for VLECFFVA, the amyloid nucleation score turned out to be 0.183 ± 0.5.
